Reference: paper PMC6547619 (2019)

B1: E. coli rBAG3 (Abcam) (natural protein)
chain: not shown

How the values were obtained:
Assay in all cases: SPR
BAG3-H3L4 = target: BAG3-H3L4
BAG3-H2L2 = target: BAG3-H2L2
BAG3-H4L4 = target: BAG3-H4L4
BAG3-H1L4 = target: BAG3-H1L4
BAG3-H3L2 = target: BAG3-H3L2
BAG3-H2L3 = target: BAG3-H2L3
BAG3-H3L3 = target: BAG3-H3L3
BAG3-H4L3 = target: BAG3-H4L3
BAG3-H1L3 = target: BAG3-H1L3
BAG3-H1L2 = target: BAG3-H1L2
E. coli rBAG3 (Abcam) = target: B1

Kd (BAG3-H3L4)	Kd (BAG3-H2L2)	Kd (BAG3-H4L4)	Kd (BAG3-H1L4)	Kd (BAG3-H3L2)	Kd (BAG3-H2L3)	Kd (BAG3-H3L3)	Kd (BAG3-H4L3)	Kd (BAG3-H1L3)	Kd (BAG3-H1L2)	Kd (E. coli rBAG3 (Abcam))	Binder
1.7 nM	2.63 nM	1.72 nM	2.34 nM	1.78 nM	1.98 nM	1.61 nM	1.98 nM	2.83 nM	2.84 nM		B1
										2.02 nM	BAG3-H4L2 (antibody, V domains shown) VH: EVQLVQSGAEVKKPGATVKISCKVSGFNIKDTYMYWVQQAPGKGLEWMGGVDPANGNTRYDPKFQGRVTITADTSTDTAYMELSSLRSEDTAVYYCARDGAMDYWGQGTLVTVSS VL: not shown
										2.04 nM	BAG3-H2L4 (antibody, V domains shown) VH: QVQLVQSGAEVKKPGASVKVSCKASGFNIKDTYMYWVRQAPGQGLEWMGGVDPANGNTRYDPKFQGRVTLTRDTSTSTVYMELSSLRSEDTAVYYCGRDGAMDYWGQGTLVTVSS VL: DIVMTQSPDSLAVSLGERATMSCKSSQSLLYSSNQKNYLAWHQQKPGQPPKLLIYWASTRESGVPDRFSGSGSGTDFTLTISSLQAEDLAIYYCQQYYTYPLTFGAGTKLEIK
